Measurements taken from paper PMC5916898, “Global profiling of protein–DNA and protein–nucleosome binding affinities using quantitative mass spectrometry”.

T1: VEZF1 (Homo sapiens, UniProt Q14119)
T1 sequence: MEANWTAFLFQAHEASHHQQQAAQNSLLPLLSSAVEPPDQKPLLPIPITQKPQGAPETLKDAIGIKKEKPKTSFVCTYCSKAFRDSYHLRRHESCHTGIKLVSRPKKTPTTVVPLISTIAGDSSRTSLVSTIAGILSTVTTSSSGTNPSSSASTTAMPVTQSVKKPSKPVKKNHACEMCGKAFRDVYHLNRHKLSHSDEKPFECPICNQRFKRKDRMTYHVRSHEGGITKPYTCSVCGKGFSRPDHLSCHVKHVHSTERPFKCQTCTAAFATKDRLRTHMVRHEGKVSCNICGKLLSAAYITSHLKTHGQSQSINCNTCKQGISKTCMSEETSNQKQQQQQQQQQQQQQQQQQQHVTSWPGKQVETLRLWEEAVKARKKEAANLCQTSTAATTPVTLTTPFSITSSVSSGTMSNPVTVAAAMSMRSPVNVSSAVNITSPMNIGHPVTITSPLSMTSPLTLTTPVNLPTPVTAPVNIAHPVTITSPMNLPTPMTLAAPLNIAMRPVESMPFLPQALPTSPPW

T2: FOXL2 (Homo sapiens, UniProt P58012)
T2 sequence: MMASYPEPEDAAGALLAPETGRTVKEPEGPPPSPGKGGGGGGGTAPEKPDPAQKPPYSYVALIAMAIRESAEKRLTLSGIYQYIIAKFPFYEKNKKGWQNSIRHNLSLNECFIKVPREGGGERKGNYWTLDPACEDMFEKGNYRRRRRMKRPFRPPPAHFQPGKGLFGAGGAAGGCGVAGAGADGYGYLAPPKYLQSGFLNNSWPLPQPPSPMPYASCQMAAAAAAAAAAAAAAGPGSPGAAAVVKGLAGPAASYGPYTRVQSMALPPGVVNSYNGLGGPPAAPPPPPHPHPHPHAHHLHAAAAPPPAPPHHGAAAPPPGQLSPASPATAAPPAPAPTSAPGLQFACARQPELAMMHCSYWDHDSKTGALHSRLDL

B1: CTCF (dsDNA)
DNA 1: TCAGAGTGGCGGCCAGCAGGGGGCGCCCTTGCCAGA
DNA 2: TCTGGCAAGGGCGCCCCCTGCTGGCCGCCACTCTGA
B2: TATA-box (dsDNA)
DNA 1: GCGGCGCTCTATATAAGTGGGCAGTG
DNA 2: CACTGCCCACTTATATAGAGCGCCGC
B3: TEAD (dsDNA)
DNA 1: TCGGGACCCAGGCCTGGAATGTTTCCACC
DNA 2: GGTGGAAACATTCCAGGCCTGGGTCCCGA
B4: SP/KLF wild-type (dsDNA)
DNA 1: GAGAGCCCCGCCCCCTGGCT
DNA 2: AGCCAGGGGGCGGGGCTCTC

What was measured:
ZBTB7B = ZBTB7B (Homo sapiens, UniProt O15156); assay: pulldown; 150 mM NaCl, 50 mM Tris pH 8, 0.25% NP-40, 1 mM TCEP; 4 C, 2 h; 100 ug HeLa nuclear lysate; details: protein: extract; label: 5' biotin (strand 1)
NFIA = NFIA (Homo sapiens, UniProt Q12857); assay: as above; details: protein: extract; label: 5' biotin (strand 1)
KLF10 = KLF10 (Homo sapiens, UniProt Q13118); assay: as above; details: protein: extract; label: 5' biotin (strand 1)
SP3 [1] = target: T3, SP3 (Homo sapiens, UniProt Q02447); assay: as above; details: protein: extract; label: 5' biotin (strand 1)
VEZF1 [2] = target: T1, VEZF1; assay: as above; details: protein: extract; label: 5' biotin (strand 1)
RBPJ = RBPJ (Homo sapiens, UniProt Q06330); assay: as above; details: protein: extract; label: 5' biotin (strand 1)
KLF3 = KLF3 (Homo sapiens, UniProt P57682); assay: as above; details: protein: extract; label: 5' biotin (strand 1)
FOXL2 = target: T2, FOXL2; assay: as above; details: protein: extract; label: 5' biotin (strand 1)
ZBTB7A = ZBTB7A (Homo sapiens, UniProt O95365); assay: competition; 150 mM NaCl, 50 mM Tris pH 8, 0.25% NP-40, 1 mM TCEP; 4 C, 2 h; 100 ug HeLa nuclear lysate; free competitor against 200 nM immobilised SP/KLF wild-type; details: protein: extract
SP4 = SP4 (Homo sapiens, UniProt Q02446); assay: as above; details: protein: extract
SP3 [3] = target: T3, SP3; assay: as above; details: protein: extract
VEZF1 [4] = target: T1, VEZF1; assay: as above; details: protein: extract
KLF16 = KLF16 (Homo sapiens, UniProt Q9BXK1); assay: as above; details: protein: extract
KLF16, sequence (Q9BXK1 whole entry): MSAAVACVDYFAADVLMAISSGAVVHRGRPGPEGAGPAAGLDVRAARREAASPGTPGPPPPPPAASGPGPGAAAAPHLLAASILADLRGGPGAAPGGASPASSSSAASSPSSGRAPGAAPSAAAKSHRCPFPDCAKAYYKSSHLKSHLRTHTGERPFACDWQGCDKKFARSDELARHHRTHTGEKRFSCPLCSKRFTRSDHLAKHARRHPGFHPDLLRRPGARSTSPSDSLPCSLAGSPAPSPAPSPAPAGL

T3 sequence (Q02447 whole entry): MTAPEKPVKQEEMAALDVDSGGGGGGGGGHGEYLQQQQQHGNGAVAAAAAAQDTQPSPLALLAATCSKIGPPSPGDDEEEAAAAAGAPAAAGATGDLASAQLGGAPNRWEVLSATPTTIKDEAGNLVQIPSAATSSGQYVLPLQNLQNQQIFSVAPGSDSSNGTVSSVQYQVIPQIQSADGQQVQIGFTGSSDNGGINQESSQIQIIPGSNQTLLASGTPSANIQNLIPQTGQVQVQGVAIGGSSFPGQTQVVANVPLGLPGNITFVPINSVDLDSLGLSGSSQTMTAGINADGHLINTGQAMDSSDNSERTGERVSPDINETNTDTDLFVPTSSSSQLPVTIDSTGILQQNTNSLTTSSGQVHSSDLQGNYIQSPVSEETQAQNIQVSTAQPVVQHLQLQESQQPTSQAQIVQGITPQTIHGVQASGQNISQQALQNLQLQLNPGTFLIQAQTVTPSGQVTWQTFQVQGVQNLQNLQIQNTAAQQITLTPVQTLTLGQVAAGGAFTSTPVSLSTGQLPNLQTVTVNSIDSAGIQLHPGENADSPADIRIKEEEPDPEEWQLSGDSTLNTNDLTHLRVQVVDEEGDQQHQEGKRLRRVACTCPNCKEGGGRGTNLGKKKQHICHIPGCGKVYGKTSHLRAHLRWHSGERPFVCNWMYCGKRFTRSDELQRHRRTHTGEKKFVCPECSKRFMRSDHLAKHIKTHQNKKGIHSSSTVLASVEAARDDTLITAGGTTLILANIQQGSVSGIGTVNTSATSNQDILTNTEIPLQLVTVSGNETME
NFIA, sequence (Q12857 whole entry): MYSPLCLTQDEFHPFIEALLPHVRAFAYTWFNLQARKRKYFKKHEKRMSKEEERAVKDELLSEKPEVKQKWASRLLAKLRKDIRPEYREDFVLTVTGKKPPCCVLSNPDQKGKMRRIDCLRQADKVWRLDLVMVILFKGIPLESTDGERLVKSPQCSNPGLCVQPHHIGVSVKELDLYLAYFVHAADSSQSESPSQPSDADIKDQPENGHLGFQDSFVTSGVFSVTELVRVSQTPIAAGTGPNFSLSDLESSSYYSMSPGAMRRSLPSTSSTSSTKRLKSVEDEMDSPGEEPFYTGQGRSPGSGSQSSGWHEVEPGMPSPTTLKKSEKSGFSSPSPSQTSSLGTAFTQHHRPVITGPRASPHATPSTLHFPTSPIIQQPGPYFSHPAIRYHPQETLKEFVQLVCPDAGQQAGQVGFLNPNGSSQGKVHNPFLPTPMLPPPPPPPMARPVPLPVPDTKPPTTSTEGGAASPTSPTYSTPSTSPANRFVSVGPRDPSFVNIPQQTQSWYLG
ZBTB7B, sequence (O15156 whole entry): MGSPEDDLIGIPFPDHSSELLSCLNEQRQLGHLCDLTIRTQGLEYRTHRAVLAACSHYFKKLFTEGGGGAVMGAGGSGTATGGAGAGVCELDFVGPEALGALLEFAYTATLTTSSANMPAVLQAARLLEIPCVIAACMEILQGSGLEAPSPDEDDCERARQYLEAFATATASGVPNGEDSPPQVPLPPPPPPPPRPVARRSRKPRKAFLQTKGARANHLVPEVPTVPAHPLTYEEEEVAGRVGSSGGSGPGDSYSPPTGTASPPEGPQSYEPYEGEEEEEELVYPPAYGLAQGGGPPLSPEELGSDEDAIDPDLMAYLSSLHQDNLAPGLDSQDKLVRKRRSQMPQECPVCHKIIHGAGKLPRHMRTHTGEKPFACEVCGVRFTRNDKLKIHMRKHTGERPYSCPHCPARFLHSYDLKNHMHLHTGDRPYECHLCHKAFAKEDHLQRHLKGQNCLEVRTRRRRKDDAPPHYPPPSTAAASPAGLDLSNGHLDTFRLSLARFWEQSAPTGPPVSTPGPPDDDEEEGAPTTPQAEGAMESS
KLF10, sequence (Q13118 whole entry): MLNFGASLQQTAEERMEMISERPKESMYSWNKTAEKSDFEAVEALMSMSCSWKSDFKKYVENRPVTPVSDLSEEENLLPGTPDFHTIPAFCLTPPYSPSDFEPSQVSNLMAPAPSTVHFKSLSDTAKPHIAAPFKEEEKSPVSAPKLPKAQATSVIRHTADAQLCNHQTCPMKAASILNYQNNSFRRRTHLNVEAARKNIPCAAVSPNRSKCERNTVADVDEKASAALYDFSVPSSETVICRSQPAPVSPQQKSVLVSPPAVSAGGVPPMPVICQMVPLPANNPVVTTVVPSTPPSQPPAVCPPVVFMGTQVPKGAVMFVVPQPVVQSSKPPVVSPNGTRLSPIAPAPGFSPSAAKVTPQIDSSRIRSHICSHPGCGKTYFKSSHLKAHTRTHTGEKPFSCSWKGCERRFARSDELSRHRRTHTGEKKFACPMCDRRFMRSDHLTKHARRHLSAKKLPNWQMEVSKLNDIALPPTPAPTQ
RBPJ, sequence (Q06330 whole entry): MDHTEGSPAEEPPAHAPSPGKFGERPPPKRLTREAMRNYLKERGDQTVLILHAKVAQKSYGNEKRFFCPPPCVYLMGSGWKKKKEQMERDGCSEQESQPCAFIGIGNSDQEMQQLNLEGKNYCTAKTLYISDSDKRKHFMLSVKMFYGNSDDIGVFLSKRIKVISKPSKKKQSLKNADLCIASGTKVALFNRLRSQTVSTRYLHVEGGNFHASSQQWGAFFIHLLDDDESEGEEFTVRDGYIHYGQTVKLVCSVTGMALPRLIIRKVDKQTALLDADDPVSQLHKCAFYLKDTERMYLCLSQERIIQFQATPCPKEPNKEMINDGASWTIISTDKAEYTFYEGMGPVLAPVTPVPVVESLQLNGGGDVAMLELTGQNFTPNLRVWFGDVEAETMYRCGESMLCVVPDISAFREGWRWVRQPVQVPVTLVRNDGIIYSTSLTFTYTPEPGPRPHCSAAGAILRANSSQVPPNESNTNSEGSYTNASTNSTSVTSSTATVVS
KLF3, sequence (P57682 whole entry): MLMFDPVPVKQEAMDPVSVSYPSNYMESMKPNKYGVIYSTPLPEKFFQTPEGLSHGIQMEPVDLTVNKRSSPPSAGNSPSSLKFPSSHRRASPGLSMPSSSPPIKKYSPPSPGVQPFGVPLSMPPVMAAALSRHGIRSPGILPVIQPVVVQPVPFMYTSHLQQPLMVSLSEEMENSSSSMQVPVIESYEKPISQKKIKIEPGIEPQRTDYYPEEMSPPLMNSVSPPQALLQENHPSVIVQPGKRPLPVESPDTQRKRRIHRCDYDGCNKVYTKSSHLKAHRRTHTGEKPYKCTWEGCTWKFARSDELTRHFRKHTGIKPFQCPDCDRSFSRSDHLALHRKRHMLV
ZBTB7A, sequence (O95365 whole entry): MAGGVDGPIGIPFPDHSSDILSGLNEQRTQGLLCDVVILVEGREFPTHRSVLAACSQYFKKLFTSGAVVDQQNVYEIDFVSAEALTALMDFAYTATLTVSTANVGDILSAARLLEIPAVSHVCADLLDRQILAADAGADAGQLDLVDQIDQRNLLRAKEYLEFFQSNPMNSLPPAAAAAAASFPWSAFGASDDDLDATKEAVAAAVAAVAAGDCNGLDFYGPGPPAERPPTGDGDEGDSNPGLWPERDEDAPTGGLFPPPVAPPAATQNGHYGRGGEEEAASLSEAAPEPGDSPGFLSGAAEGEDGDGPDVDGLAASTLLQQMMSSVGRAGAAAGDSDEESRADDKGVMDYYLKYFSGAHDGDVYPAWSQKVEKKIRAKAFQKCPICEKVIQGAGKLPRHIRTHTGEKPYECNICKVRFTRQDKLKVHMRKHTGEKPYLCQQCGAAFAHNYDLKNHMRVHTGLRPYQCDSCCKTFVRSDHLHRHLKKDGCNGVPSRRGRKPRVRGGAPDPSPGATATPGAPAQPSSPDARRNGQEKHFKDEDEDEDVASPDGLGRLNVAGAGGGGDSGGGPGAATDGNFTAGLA
SP4, sequence (Q02446 whole entry): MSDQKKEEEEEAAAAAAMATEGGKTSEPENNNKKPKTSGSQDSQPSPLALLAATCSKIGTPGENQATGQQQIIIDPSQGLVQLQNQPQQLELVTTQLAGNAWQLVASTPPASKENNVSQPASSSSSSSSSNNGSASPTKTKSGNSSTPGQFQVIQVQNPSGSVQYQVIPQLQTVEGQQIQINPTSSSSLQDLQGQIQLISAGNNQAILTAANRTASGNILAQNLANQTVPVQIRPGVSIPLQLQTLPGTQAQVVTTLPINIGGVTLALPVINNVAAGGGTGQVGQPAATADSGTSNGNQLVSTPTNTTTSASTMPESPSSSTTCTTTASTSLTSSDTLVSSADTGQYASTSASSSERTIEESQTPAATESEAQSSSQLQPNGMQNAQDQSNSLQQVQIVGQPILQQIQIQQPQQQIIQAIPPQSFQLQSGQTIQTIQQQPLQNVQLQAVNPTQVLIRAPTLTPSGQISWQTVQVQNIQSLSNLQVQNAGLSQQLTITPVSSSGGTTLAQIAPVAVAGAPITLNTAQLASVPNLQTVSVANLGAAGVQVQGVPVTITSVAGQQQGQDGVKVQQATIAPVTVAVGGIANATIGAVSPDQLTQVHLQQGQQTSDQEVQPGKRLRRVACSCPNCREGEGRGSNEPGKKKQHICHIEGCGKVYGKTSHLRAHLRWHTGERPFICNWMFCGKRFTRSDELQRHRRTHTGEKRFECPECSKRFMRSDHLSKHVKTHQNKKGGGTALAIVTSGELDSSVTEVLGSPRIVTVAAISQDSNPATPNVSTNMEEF

Binder	apparent K (half saturation) (ZBTB7B)	apparent K (half saturation) (NFIA)	apparent K (half saturation) (KLF10)	apparent K (half saturation) (SP3 [1])	apparent K (half saturation) (VEZF1 [2])	apparent K (half saturation) (RBPJ)	apparent K (half saturation) (KLF3)	apparent K (half saturation) (FOXL2)	IC50 (ZBTB7A)	IC50 (SP4)	IC50 (SP3 [3])	IC50 (VEZF1 [4])	IC50 (KLF16)
B1	39.2 nM	72.8 nM	41.2 nM	72 nM	34.1 nM	376 nM	124 nM						
B2	230 nM		84.5 nM		227 nM			140 nM					
B3		119 nM			225 nM	208 nM		140 nM					
B4				19.3 nM	182 nM		61.9 nM		263 nM	87.5 nM	147 nM	270 nM	176 nM
